Read-outs that look alike come from different tables or passages of the source.
Assays:
[1] = biological target: SARS-CoV-2 Spike RBD (SARS-CoV-2), P0DTC2
[2] = biological target: SARS-CoV-2 Spike RBD (SARS-CoV-2), P0DTC2; remark: listed apart in the source
[3] = biological target: SARS-CoV-2 Spike RBD (SARS-CoV-2), P0DTC2; remark: listed apart in the source
[4] = biological target: SARS-CoV-2 Spike RBD (SARS-CoV-2), P0DTC2; remark: listed apart in the source
[5] = biological target: SARS-CoV-2 Spike RBD (SARS-CoV-2), P0DTC2; remark: listed apart in the source
[6] = biological target: SARS-CoV-2 Spike RBD (SARS-CoV-2), P0DTC2; remark: listed apart in the source
[7] = biological target: SARS-CoV-2 Spike RBD (SARS-CoV-2), P0DTC2; remark: listed apart in the source

Adjusted Binding Rate [1]: 6.47 nm/s
Adjusted Binding Rate [2]: 3.4 nm/s
Adjusted Binding Rate [3]: 3.39 nm/s
Adjusted Binding Rate [4]: 7.24 nm/s
Adjusted Binding Rate [5]: 4.4 nm/s
Adjusted Binding Rate [6]: 12.5 nm/s
Adjusted Binding Rate [7]: 1.5 nm/s
B1: R2G3-His (peptide)
chain: GGGGAMGSEGDKTCPDGYEHTCGCIGGCGCKRSACIGALCCQASLGGWLSDGETYTGGGGSGGGGSHHHHHH
modifications: not checked

— patent publication US20260201020A1, “METHODS FOR EXPRESSION OF FUSION-FREE BOVINE ULTRALONG CDR3 SCAFFOLD” (priority 2022, published 2026)
